# Assay results reported in patent publication US20120276098A1 (GlaxoSmithKline, published 2012).
# B1: Rat serum albumin (other, UniProt P02770 25-608, looked up)
# chain: EAHKSEIAHRFKDLGEQHFKGLVLIAFSQYLQKCPYEEHIKLVQEVTDFAKTCVADENAENCDKSIHTLFGDKLCAIPKLRDNYGELADCCAKQEPERNECFLQHKDDNPNLPPFQRPEAEAMCTSFQENPTSFLGHYLHEVARRHPYFYAPELLYYAEKYNEVLTQCCTESDKAACLTPKLDAVKEKALVAAVRQRMKCSSMQRFGERAFKAWAVARMSQRFPNAEFAEITKLATDVTKINKECCHGDLLECADDRAELAKYMCENQATISSKLQACCDKPVLQKSQCLAEIEHDNIPADLPSIAADFVEDKEVCKNYAEAKDVFLGTFLYEYSRRHPDYSVSLLLRLAKKYEATLEKCCAEGDPPACYGTVLAEFQPLVEEPKNLVKTNCELYEKLGEYGFQNAVLVRYTQKAPQVSTPTLVEAARNLGRVGTKCCTLPEAQRLPCVEDYLSAILNRLCVLHEKTPVSEKVTKCCSGSLVERRPCFSALTVDETYVPKEFKAETFTFHSDICTLPDKEKQIKKQTALAELVKHKPKATEDQLKTVMGDFAQFVDKCCKAADKDNCFATEGPNLVARSKEALA
# notes: also called RSA
# Key:
# Assay in all cases: SPR (Biacore), serum albumin immobilised on CM5 chip, fusion flowed at 16 nM to 2 uM
# [1] = target: DAT 0117: Exendin 4, helical linker, DOM7h-14 fusion
# Procedure: (§1) The analysis was performed using a CM5 Biacore chip (carboxymethylated dextran matrix) that was coated with serum albumin.
# (§2) Affinity (KD) was calculated from the BIACORE traces by fitting on-rate and off-rate curves to traces generated by concentrations of dAb in the region of the KD.
# [2] = target: T1, Human serum albumin (human, UniProt P02768 25-609)
# T1 construct: also called HSA
# Procedure: as §1, §2
# [3] = target: B1
# Procedure: as §1, §2
# [4] = target: T2, Mouse serum albumin (mouse, UniProt P07724 25-608)
# T2 construct: also called MSA
# T2 sequence (P07724 25-608 limits assumed): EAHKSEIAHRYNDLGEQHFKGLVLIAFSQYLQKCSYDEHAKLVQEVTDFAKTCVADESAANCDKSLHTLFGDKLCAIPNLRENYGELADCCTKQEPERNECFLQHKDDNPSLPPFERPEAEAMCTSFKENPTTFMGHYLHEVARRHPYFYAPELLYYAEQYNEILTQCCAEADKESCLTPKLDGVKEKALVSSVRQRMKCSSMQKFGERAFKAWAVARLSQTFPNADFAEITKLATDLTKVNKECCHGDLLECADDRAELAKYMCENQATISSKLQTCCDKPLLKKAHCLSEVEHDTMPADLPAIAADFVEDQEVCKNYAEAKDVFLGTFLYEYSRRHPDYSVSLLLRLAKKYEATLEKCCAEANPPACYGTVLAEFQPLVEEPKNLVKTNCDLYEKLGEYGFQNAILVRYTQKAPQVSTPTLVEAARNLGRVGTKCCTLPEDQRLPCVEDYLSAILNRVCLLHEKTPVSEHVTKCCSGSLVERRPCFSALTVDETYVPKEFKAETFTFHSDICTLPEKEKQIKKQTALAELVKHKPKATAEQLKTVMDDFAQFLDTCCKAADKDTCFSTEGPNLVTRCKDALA
# Procedure: as §1, §2
Binder,Kd [1],Kd [2],Kd [3],Kd [4]
B1,700 nM,,,
"DAT 0120: GLP-1 (7-37) A8G, helical linker, DOM7h-14 fusion (other, also called DAT 0120: GLP-1 A8G, helical linker, DOM7h-14 fusion) HGEGTFTSDVSSYLEGQAAKEFIAWLVKGRGKEAAAKEAAAKEAAAKELAAKEAAAKEAAAKEAAAKELAADIQMTQSPSSLSASVGDRVTITCRASQWIGSQLSWYQQKPGKAPKLLIMWRSSLQSGVPSRFSGSGSGTDFTLTISSLQPEDFATYYCAQGAALPRTFGQGTKVEIKR",,110 nM,800 nM,110 nM
